In publication PMC6805484 (2019):

B1: GFP-MKRN1^wt (Makorin Ring Finger Protein 1, wild type, N-terminally GFP-tagged) [human] / cytoplasmic poly(A)-binding protein PABPC4 (endogenous) [human (endogenous in HEK293T)] (parent complex)
chain 1: MAEAATPGTTATTSGAGAAAATAAAASPTPIPTVTAPSLGAGGGGGGSDGSGGGWTKQVTCRYFMHGVCKEGDNCRYSHDLSDSPYSVVCKYFQRGYCIYGDRCRYEHSKPLKQEEATATELTTKSSLAASSSLSSIVGPLVEMNTGEAESRNSNFATVGAGSEDWVNAIEFVPGQPYCGRTAPSCTEAPLQGSVTKEESEKEQTAVETKKQLCPYAAVGECRYGENCVYLHGDSCDMCGLQVLHPMDAAQRSQHIKSCIEAHEKDMELSFAVQRSKDMVCGICMEVVYEKANPSERRFGILSNCNHTYCLKCIRKWRSAKQFESKIIKSCPECRITSNFVIPSEYWVEEKEEKQKLILKYKEAMSNKACRYFDEGRGSCPFGGNCFYKHAYPDGRREEPQRQKVGTSSRYRAQRRNHFWELIEERENSNPFDNDEEEVVTFELGEMLLMLLAAGGDDELTDSEDEWDLFHDELEDFYDLDL
chain 2: MNAAASSYPMASLYVGDLHSDVTEAMLYEKFSPAGPVLSIRVCRDMITRRSLGYAYVNFQQPADAERALDTMNFDVIKGKPIRIMWSQRDPSLRKSGVGNVFIKNLDKSIDNKALYDTFSAFGNILSCKVVCDENGSKGYAFVHFETQEAADKAIEKMNGMLLNDRKVFVGRFKSRKEREAELGAKAKEFTNVYIKNFGEEVDDESLKELFSQFGKTLSVKVMRDPNGKSKGFGFVSYEKHEDANKAVEEMNGKEISGKIIFVGRAQKKVERQAELKRKFEQLKQERISRYQGVNLYIKNLDDTIDDEKLRKEFSPFGSITSAKVMLEDGRSKGFGFVCFSSPEEATKAVTEMNGRIVGSKPLYVALAQRKEERKAHLTNQYMQRVAGMRALPANAILNQFQPAAGGYFVPAVPQAQGRPPYYTPNQLAQMRPNPRWQQGGRPQGFQGMPSAIRQSGPRPTLRHLAPTGSECPDRLAMDFGGAGAAQQGLTDSCQSGGVPTAVQNLAPRAAVAAAAPRAVAPYKYASSVRSPHPAIQPLQAPQPAVHVQGQEPLTASMLAAAPPQEQKQMLGERLFPLIQTMHSNLAGKITGMLLEIDNSELLHMLESPESLRSKVDEAVAVLQAHHAKKEAAQKVGAVAAATS

Variants of: B1
Assay: AP with quantitative MS-based proteomics (SILAC); HEK293T cells; combined ratios of three replicates; read off a plot

screen value [z-score] | Variant
~-9.1 | chain 1 A169S, chain 1 F172A, chain 1 P174A
